This series concerns the molecule itself. In words: SEC. For orientation: SEC sorts molecules by how far they enter the pores of the column.

Here are results for one protein from publication PMC7211764 (Biochemistry, 2019).

What is called stoichiometry N is the number of molecules, sites or subunits per partner or assembly.

B1: A3A H29R (enzyme)
chain: not shown
With B1, the “stoichiometry N” value worked out at 2.
